This passage reports Kd, binding and specific His6-PomZ ATPase activity (NADH-coupled assay, 4 µM His6-PomZ, with DNA) with purified Sumo-PomY^496-682-mCh, 2 to 10 µM (ATP h^-1 µM^-1) results from paper PMC13170346.

The target of data set [1] is T1, His6-PomZ (Myxococcus xanthus (DK1622?)) (UniProt Q1DEM0).
T1 sequence: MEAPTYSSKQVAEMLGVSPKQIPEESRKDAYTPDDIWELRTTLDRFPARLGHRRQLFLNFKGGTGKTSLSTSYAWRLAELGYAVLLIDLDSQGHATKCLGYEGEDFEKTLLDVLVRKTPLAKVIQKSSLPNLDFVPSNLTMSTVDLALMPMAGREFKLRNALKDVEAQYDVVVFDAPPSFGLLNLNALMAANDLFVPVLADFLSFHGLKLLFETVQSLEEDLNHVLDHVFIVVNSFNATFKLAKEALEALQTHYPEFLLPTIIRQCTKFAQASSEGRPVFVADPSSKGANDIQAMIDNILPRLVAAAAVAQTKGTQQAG
As to the kind of experiment: BLI. The settings on record: 5' biotin-TEG on both strands; BLI: 50 mM HEPES/NaOH pH 7.2, 50 mM KCl, 0.1 mM EDTA, 10% glycerol, 10 mM MgCl2, 1 mM β-mercaptoethanol, 0.05% Tween 20, 1 mM …; 100 nM DNA loaded; assay temp.

The target of data set [2] is T2, PomY624-682-mCh (gD domain) (Myxococcus xanthus (DK1622?)) (UniProt Q1DEM1).
T2 sequence: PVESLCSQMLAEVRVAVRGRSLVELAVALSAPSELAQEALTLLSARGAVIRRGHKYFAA
The experiment in a line: BLI. As to conditions: 5' biotin-TEG on both strands; BLI: 50 mM HEPES/NaOH pH 7.2, 50 mM KCl, 0.1 mM EDTA, 10% glycerol, 10 mM MgCl2, 1 mM β-mercaptoethanol, 0.05% Tween 20, 1 mM …; 100 nM DNA loaded; assay temp.

For data set [3], the target named is PomZ (Myxococcus xanthus) (UniProt Q1DEM0).
Data set [4] has as its system His6-PomZ (Myxococcus xanthus (DK1622?)). The experiment in a line: BLI. As to conditions: 1 mM ATP, 10 mM MgCl2; 5' biotin-TEG on both strands; BLI: 50 mM HEPES/NaOH pH 7.2, 50 mM KCl, 0.1 mM EDTA, 10% glycerol, 10 mM MgCl2, 1 mM β-mercaptoethanol, 0.05% Tween 20, 1 mM ATP; 100 nM DNA loaded; assay ….

By Kd is commonly meant a measure of binding affinity in units of concentration. A lower Kd goes with higher affinity. In turn, “GGGCCACCAAGCCCACCGCCGGCTCCAAGCGGCGGCGCCTGGAAGGCAAGAAGCGCACCTCCGAAAAAAAGGCCCTGAGAAACAGCAAATCCGGCTGGTGACCCAGGGTCCATCAGGACTCCAGTCACCCTGTCGCCGGACAGTCAGGGTGCGCCTAAAGTTTGCGAGCTCGCAGACGTTGCGAGGTCATCTGCTGCTCGCAGGGACCTCCTCCTGGGAATTTGCC (double strand) [cluster3 promoter PCR fragment]” registered a Kd in data set [1] of 24.3 µM. In addition, in data set [2], the binding result was “no binding”. For the substance “His6-Sumo-PomY^496-682-mCh (domain or fragment)”, the specific His6-PomZ ATPase activity (NADH-coupled assay, 4 µM His6-PomZ, with DNA) with purified Sumo-PomY^496-682-mCh, 2 to 10 µM (ATP h^-1 µM^-1) in data set [3] is 11.6.

In data set [4], cluster3 promoter PCR fragment showed a Kd of 24.3 µM.
